Data published in the RNAGym collection of RNA variant scans (doi:10.7554/elife.90254).

B1: LINE1-full (parent)
chain: UACGUAGGUGGUUUUCCCCUGAUAGUGCUAAGGGGGCCUGGAAGUUUGGACUGGGCAGAGCUCAACACAGCGUGGCAAAGUGGCUGUGGCUAGACUGCCUCUCUGGAUUCCUCGUCACUCAGCAGGGCAUCUCUGAGAGAAAUGCC

Variants of: B1
Assay: self-cleavage, relative activity (ratio to wild type); higher = more cleavage; in vitro, sequencing; the parent is a self-cleaving ribozyme

Variant	self-cleavage
A43U U47A	1.44
G41C U115A	1.88
A42C U108C	0.8
G44A A141G	1.42
A42U U132C	1.01
A42G C51A	2.3
A43G G125U	1.02
A43G G125A	1.24
A43U U102C	0.25
A43U U102G	0.75
A43G A142G	1.5
A42U U87A	0.07
A42U U109C	0.71
A43C U108C	1.78
G40C A140G	1.23
A42U U119A	0.98
A42C A124G	0.79
A42G C99U	1.11
G41A A141G	0.96
A42U U47C	1.7
G40U A92G	0.02

Variant	self-cleavage
G41A U47A	1.77
A43G A140G	1.35
A43U G44A	1.61
G41A A129U	1.42
A43U A117G	1.25
A43G A129G	1.48
A43G A129U	0.95
A42G	1.38
A42U	0.98
A42C	0.92
A42G G139A	1.28
A42G U96C	0.12
A42G U96G	0
A42C A92C	0
A42G A124G	0.87
A42G A124C	2.96
A42U C120U	0.4
A43U U85C	0.16
A42U C56A	0.05
A43G U134G	0.97
A43G U134C	1.09

Variant	self-cleavage
A43U G86U	0.08
G41C U134C	1.76
A42G A94G	0.26
A42G A94U	0.21
A42U A107U	0.92
A43U G105A	1.21
G40A U130A	1.36
G40A U130G	1.19
A42G U47C	1.54
A42G U47G	0.88
A43U C61U	0.02
A42U G53A	1.72
A42G A78U	1.66
A43U G58A	0.05
A42G G75A	1.14
A42G G44A	1.27
A43G U132A	1.55
A43G U132C	1.1
G41A G125A	1.46
A43U U96A	0.12
A42G U87C	0.41

Variant	self-cleavage
A42G U87A	0.1
A42U A142U	0.57
G41A A65G	0.03
G40C A42G	1.09
A43G G54A	0.41
A43C U87A	0.09
A43G U100A	0.89
A43U U52A	1.04
G40U U102C	1
A42U A67G	0.21
G41A U102A	1.05
A43U A78C	2.35
A43U A78G	0.61
A43U G122A	1.02
A42G U45C	1.2
G40C C146U	1.54
A42U U91C	0.27
A42U U45A	0.95
A43G G89U	0.04
A43G A141U	1.61
A43G A141G	1.29
